T1: human MHC class II DR protein (DRA*0101/DRB1*0401), purified from PRIESS cells (human, UniProt P01903 26-254; P01911 30-266, limits assumed)
T1 construct: mature; also called HLA-DR protein; MHCII
T1 MHC II alpha: not shown
T1 MHC II beta: not shown

B1: MS-GPC-8-6-47 Fab (Fab, V domains shown)
VH: QVQLKESGPALVKPTQTLTLTCTFSGFSLSTSGVGVGWIRQPPGKALEWLALIDWDDDKYYSTSLKTRLTISKDTSKNQVVLTMTNMDPVDTATYYCARSPRYRGAFDYWGQGTLVTVSS
VL: DIVLTQPPSVSGAPGQRVTISCSGSESNIGSNYVSWYQQLPGTAPKLLIYDNNQRPSGVPDRFSGSKSGTSASLAITGLQSEDEADYYCQSYDYDHYVFGGGTKLTVLG
notes: Fab: VH-CH1 with FLAG tag and STREP tag II, VL-CL; VH residue 1 is Q in Fab
B2: MS-GPC-8-27-10 Fab (Fab, V domains shown)
VH: B1 VH
VL: B1 VL with S31A, S35N, Y94M, D95N, H96V, Y97H
notes: as for B1
B3: MS-GPC-8-6-27 Fab (Fab, V domains shown)
VH: B1 VH
VL: B1 VL with E26D, S31A, S35T
notes: as for B1
B4: MS-GPC-8-10-57 Fab (Fab, V domains shown)
VH: B1 VH
VL: B1 VL with S31N, S35Q, Y94L, D95I, H96R, Y97H
notes: Fab: VH-CH1 with FLAG tag and STREP tag II, VL-CL; VH residue 1 is Q in Fab; also called 1C7277

Where a chain is given by its changes, count along the chain named.

The target of one experiment is T1, human MHC class II DR protein …. Put plainly: ELISA, coated antigen, Fab 100 ng/well, read at 370 nm. How it is done: (§1) After washing in PBS the anti-human IgG F(ab')_2-peroxidase-conjugate at a 1:10,000 dilution in TBS (supplemented with 5% w/v non-fat drymilk/0.05% v/v Tween 20) was added to each well for 1 h. Final washes were carried out in PBS followed the addition the substrate POD (Roche).
A general note: In an ELISA, binding on a coated surface is turned into a signal by an enzyme label.
In turn, B1 showed an ELISA signal of 1.4.
Take B2: the ELISA signal was determined as 1.49.
As for B3, the ELISA signal was 1.3.
In turn, B4 returned an ELISA signal of 1.26.

The target in the next experiment is T2, lysozyme.
T2 construct: negative control antigen
T2 sequence (P00698 19-147): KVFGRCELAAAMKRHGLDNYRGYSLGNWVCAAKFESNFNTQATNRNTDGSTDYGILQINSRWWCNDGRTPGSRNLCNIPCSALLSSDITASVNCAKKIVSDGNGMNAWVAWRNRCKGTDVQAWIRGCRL
Described as above. How it is done:
as §1
For B1, the ELISA signal came to 0.013.
With B3, the ELISA signal was found to be 0.006.
In turn, B4 registered an ELISA signal of 0.014.

In a further experiment the target is T3, BSA (bovine, UniProt P02769 25-607).
T3 construct: negative control antigen; also called bovine serum albumine
T3 sequence (P02769 25-607 limits assumed): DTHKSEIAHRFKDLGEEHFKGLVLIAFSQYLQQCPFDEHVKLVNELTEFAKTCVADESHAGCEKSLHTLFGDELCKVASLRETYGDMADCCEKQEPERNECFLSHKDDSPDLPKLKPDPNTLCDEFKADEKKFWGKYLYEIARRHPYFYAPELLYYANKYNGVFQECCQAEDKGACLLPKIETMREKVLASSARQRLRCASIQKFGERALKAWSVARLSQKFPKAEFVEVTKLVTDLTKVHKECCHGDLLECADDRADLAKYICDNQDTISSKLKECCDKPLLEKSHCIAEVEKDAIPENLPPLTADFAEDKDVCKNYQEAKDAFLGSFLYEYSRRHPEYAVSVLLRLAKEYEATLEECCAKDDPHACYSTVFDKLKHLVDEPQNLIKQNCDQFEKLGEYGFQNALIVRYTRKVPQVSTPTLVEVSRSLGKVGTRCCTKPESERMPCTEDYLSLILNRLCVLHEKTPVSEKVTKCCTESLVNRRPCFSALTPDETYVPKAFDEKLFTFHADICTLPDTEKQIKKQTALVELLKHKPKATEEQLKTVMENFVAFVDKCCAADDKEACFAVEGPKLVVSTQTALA
The experiment is described as above. How it is done: as §1
For B1, the ELISA signal was 0.008 and the binding result is “no binding (tested: 100 ng/well)”.
Taken in the same sequence, the figures for B3 were 0.003 and “no binding (tested: 100 ng/well)”.
Turning to B4, the ELISA signal came to 0.003 and the binding result was “no binding (tested: 100 ng/well)”.

A further experiment deals with T1, human MHC class II DR protein …. Put plainly: SPR (BIAcore), MHCII on CM5 chip.
Take B1: the Kd (in general, the constant that tells how readily two partners part at equilibrium) came out at 3.2 nM; the koff (as a rule, the rate constant with which the complex falls apart) was determined as 0.00062 s⁻¹; the kon (commonly the second-order rate constant of association) is 200000 M⁻¹ s⁻¹.
In turn, B2 came in with a Kd of 3 nM, a koff of 0.00053 s⁻¹ and a kon of 180000 M⁻¹ s⁻¹.
B3 returned a Kd of 6.3 nM, a koff of 0.0011 s⁻¹ and a kon of 180000 M⁻¹ s⁻¹.

The target in a further experiment is chimeric 0401-IE class II molecule on cells of transgenic mice (human/murine chimera). Put plainly: cell-based or functional assay.
For B1, the “IC50 of inhibition of IL-2 secretion from T-Hyb 1 cells” value (from here on “IC50 of inhibition of IL-2 secretion”) was 2.6 nM (half the concentration of the Fab) and the “Maximum inhibition(%) of IL-2 secretion” value was determined as 100%.
In the case of B2, the “IC50 of inhibition of IL-2 secretion” value is 7.3 nM (half the concentration of the Fab) and the “Maximum inhibition(%) of IL-2 secretion” value came out at 100%.
Regarding B3, the “IC50 of inhibition of IL-2 secretion” value is 3 nM (half the concentration of the Fab) and the “Maximum inhibition(%) of IL-2 secretion” value is 100%.
Consider B4, for which the “IC50 of inhibition of IL-2 secretion” value is 2.9 nM (half the concentration of the Fab) and the “Maximum inhibition(%) of IL-2 secretion” value was found to be 100%.

The target in the next experiment is T1, human MHC class II DR protein …. Put plainly: SPR (BIAcore), MHCII on CM5 chip. This is another data set of the same source. On the technique in general: In SPR one partner is held on a chip, and binding of the other changes the refractive index at the surface.
In turn, B1 yielded a Kd of 3.18 nM, a koff of 0.00062 s⁻¹ and a kon of 197000 M⁻¹ s⁻¹.
As for B2, the Kd is 3.01 nM, the koff turned out to be 0.00053 s⁻¹ and the association rate constant (kon) was 176000 M⁻¹ s⁻¹.
In the same order, the values of B3 are 6.3 nM, 0.0011 s⁻¹ and 180000 M⁻¹ s⁻¹.

For the origin of these results see patent US7521047 (GPC BIOTECH, dated 2009).
